{"source": "paper PMC8503651", "about": "“The Stress-Active Cell Division Protein ZapE Alters FtsZ Filament Architecture to Facilitate Division in Escherichia coli” (Frontiers in Microbiology, 2021)", "molecules": {"B1": {"name": "FtsZ (native) (natural protein, Escherichia coli, UniProt P0A9A6 1-383, looked up)", "chain": "MFEPMELTNDAVIKVIGVGGGGGNAVEHMVRERIEGVEFFAVNTDAQALRKTAVGQTIQIGSGITKGLGAGANPEVGRNAADEDRDALRAALEGADMVFIAAGMGGGTGTGAAPVVAEVAKDLGILTVAVVTKPFNFEGKKRMAFAEQGITELSKHVDSLITIPNDKLLKVLGRGISLLDAFGAANDVLKGAVQGIAELITRPGLMNVDFADVRTVMSEMGYAMMGSGVASGEDRAEEAAEMAISSPLLEDIDLSGARGVLVNITAGFDLRLDEFETVGNTIRAFASDNATVVIGTSLDPDMNDELRVTVVATGIGMDKRPEITLVTNKQVQQPVMDRYQQHGMAPLTQEQKPVAKVVNDNAPQTAKEPDYLDIPAFLRKQAD", "notes": "FtsZ, tubulin-like GTPase and cell division protein of Escherichia coli; native (no tag named); Assembles into polymers with GTP; also called Native FtsZ; wild type FtsZ; source: E. coli BL21 (λde3), purified as described (Camberg et al., 2009)"}}, "key": {"[1]": {"biological_target": "ZapE (N-terminal six histidine fusion protein) (Escherichia coli) (UniProt P64612)", "assay": "co-sedimentation; phospholipid recruitment: Gfp-FtsZ (3 μM) with GTP (4 mM) added to ZapE (1 μM) pre-assembled with SUVs (500 μg ml^-1) and ATP (4 mM); 50 mM HEPES pH 7.5, 150 mM KCl, 20 mM MgCl2; 21,000 × g for 15 min; percent in the pellet by densitometry; 6% of Gfp-FtsZ in the pellet without …"}, "[2]": {"biological_target": "Histidine-tagged Gfp-FtsZ (Escherichia coli)", "assay": "filter retention (ultrafiltration, 100 kDa filter); ZapE or ZapE(K84A) (5 μM) with Gfp-FtsZ (10 μM) and ATP (4 mM), without GTP; 50 mM MES pH 6.5, 100 mM KCl, 10 mM MgCl2, 23°C, 10 min; filtrate and retentate by SDS-PAGE and densitometry; ZapE alone retained 33.4%, ZapE(K84A) alone 50.3%"}, "FtsZ (native) [3]": {"biological_target": "B1", "assay": "cell-based or functional assay"}, "FtsZ (native) [4]": {"biological_target": "B1", "assay": "co-sedimentation; FtsZ (6 μM) with GTP (2 mM) or without GTP, with or without ZapE or ZapE(K84A) (8 μM), with or without ATP or ATPγS (4 mM); 50 mM HEPES pH 7.5, 150 mM KCl, 20 mM MgCl2, 23°C, 10 min; 250,000 × g for 20 min; supernatants and pellets by SDS-PAGE and Coomassie", "details": "both partners purified"}, "[5]": {"substrate": "Nc1ncnc2c1ncn2[C@@H]1O[C@H](COP(=O)(O)OP(=O)(O)OP(=O)(O)O)[C@@H](O)[C@H]1O", "assay": "phosphate release (Biomol Green), Michaelis-Menten fit", "format": "biochemical, Escherichia coli", "details": "12 μM ZapE, ATP 0 to 5 mM, 50 mM HEPES pH 7.5, 150 mM KCl, 20 mM MgCl2, 23°C"}, "[6]": {"biological_target": "the molecule itself", "assay": "co-sedimentation; FtsZ (6 μM) with GTP (2 mM) or without GTP, with or without ZapE or ZapE(K84A) (8 μM), with or without ATP or ATPγS (4 mM); 50 mM HEPES pH 7.5, 150 mM KCl, 20 mM MgCl2, 23°C, 10 min; 250,000 × g for 20 min; supernatants and pellets by SDS-PAGE and Coomassie"}}}
{"molecule": "Histidine-tagged Gfp-FtsZ", "values": [{"measurement": "percent of total Gfp-FtsZ in the phospholipid pellet", "setting": "[1]", "value": 21.6, "unit": "%"}]}
{"molecule": "ZapE (N-terminal six histidine fusion protein) (enzyme, Escherichia coli, UniProt P64612 1-375, looked up) MQSVTPTSQYLKALNEGSHQPDDVQKEAVSRLEIIYQELINSTPPAPRTSGLMARVGKLWGKREDTKHTPVRGLYMWGGVGRGKTWLMDLFYQSLPGERKQRLHFHRFMLRVHEELTALQGQTDPLEIIADRFKAETDVLCFDEFFVSDITDAMLLGGLMKALFARGITLVATSNIPPDELYRNGLQRARFLPAIDAIKQHCDVMNVDAGVDYRLRTLTQAHLWLSPLHDETRAQMDKLWLALAGGKRENSPTLEINHRPLATMGVENQTLAVSFTTLCVDARSQHDYIALSRLFHTVMLFDVPVMTRLMESEARRFIALVDEFYERHVKLVVSAEVPLYEIYQGDRLKFEFQRCLSRLQEMQSEEYLKREHLAG", "values": [{"measurement": "percent of total ZapE retained on the filter", "setting": "[2]", "value": 63.4, "unit": "%"}, {"measurement": "maximum 90° light scatter of FtsZ (8 μM) after addition of GTP (1.5 mM), ZapE 0 to 8 μM with ATP (4 mM)", "setting": "FtsZ (native) [3]", "value": "> 2", "unit": "fold"}]}
{"molecule": "ZapE(K84A) (N-terminal histidine fusion protein) (enzyme, Escherichia coli, UniProt P64612 1-375, looked up, ZapE of Escherichia coli with the Walker A substitution K84A (defective for ATP hydrolysis); pET-28a, site-directed mutagenesis; also called H6-ZapE(K84A); His6-zapE(K84A); source: E. coli BL21 (λde3), purified (cobalt column, sephadex G25); not shown: His6, N-terminal, kept) MQSVTPTSQYLKALNEGSHQPDDVQKEAVSRLEIIYQELINSTPPAPRTSGLMARVGKLWGKREDTKHTPVRGLYMWGGVGRGATWLMDLFYQSLPGERKQRLHFHRFMLRVHEELTALQGQTDPLEIIADRFKAETDVLCFDEFFVSDITDAMLLGGLMKALFARGITLVATSNIPPDELYRNGLQRARFLPAIDAIKQHCDVMNVDAGVDYRLRTLTQAHLWLSPLHDETRAQMDKLWLALAGGKRENSPTLEINHRPLATMGVENQTLAVSFTTLCVDARSQHDYIALSRLFHTVMLFDVPVMTRLMESEARRFIALVDEFYERHVKLVVSAEVPLYEIYQGDRLKFEFQRCLSRLQEMQSEEYLKREHLAG", "values": [{"measurement": "percent of ZapE(K84A) retained on the filter", "setting": "[2]", "value": 80.2, "unit": "%"}, {"measurement": "binding result", "setting": "FtsZ (native) [4]", "value": "binds"}]}
{"molecule": "ZapE (H6-ZapE) (Escherichia coli K-12) (protein, full-length, N-terminal 6xHis tag kept, pET-28a, expressed in E. coli BL21 (λde3); calculated mass 44,583 Da; predominantly monomer) MQSVTPTSQYLKALNEGSHQPDDVQKEAVSRLEIIYQELINSTPPAPRTSGLMARVGKLWGKREDTKHTPVRGLYMWGGVGRGKTWLMDLFYQSLPGERKQRLHFHRFMLRVHEELTALQGQTDPLEIIADRFKAETDVLCFDEFFVSDITDAMLLGGLMKALFARGITLVATSNIPPDELYRNGLQRARFLPAIDAIKQHCDVMNVDAGVDYRLRTLTQAHLWLSPLHDETRAQMDKLWLALAGGKRENSPTLEINHRPLATMGVENQTLAVSFTTLCVDARSQHDYIALSRLFHTVMLFDVPVMTRLMESEARRFIALVDEFYERHVKLVVSAEVPLYEIYQGDRLKFEFQRCLSRLQEMQSEEYLKREHLAG", "values": [{"measurement": "Km", "setting": "[5]", "value": "1700 ± 360", "unit": "µM"}]}
{"molecule": "B1", "values": [{"measurement": "binding result", "setting": "[6]", "value": "binds"}]}
